Changes are numbered by the printed parent chain. Names may count otherwise.
Molecular target: CD63 on cells (human) (UniProt P08962)
Assay: cell-based or functional assay

Sequence of CD63 on cells (human) (P08962 2-238): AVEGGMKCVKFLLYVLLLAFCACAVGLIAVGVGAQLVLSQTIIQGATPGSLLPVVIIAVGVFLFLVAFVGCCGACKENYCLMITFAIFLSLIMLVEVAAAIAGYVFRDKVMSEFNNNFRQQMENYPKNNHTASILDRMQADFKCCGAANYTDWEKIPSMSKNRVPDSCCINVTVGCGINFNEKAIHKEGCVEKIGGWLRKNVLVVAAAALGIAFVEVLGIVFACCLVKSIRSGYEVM

B1: bsCD63xb12-Duo3 (bispecific antibody, part only; not given: b12 control arm VH and VL, IgG1, V domains shown, part only)
VH: EVQLQQSGPELVKPGASVKMSCKASGYTFTSYVMHWVRQTPGQGLEWIGYITPYNDGTKYNEKFKGKATLTSDKSSSTAYMELSSLTSEDSAVYYCVGGDNYYYAMDYWGQGTSVTVSAA
VL: NIMVTQSPSSLAVSAGEKVTMSCKSSQSVLYSSNQKNYLAWYQQKPGQSPKLLIYWASTRVSGVPDRFTGSGSGTDFTLTISRVQAEDLAVYYCHQYFSSFTFGSGTKLEIKRT
Question: What does the source list for B1?
Answer: IC50 of cytotoxicity, Colo205 cells (CellTiter-GLO, 4 days): 2.61 µg/mL; IC50 of cytotoxicity, HCC1954 cells (CellTiter-GLO, 4 days): 0.424 µg/mL; IC50 of cytotoxicity, SK-OV-3 cells (CellTiter-GLO, 4 days): 0.815 µg/mL

B2: bsCD63xb12-Duo3 with CD63 variant Y127 (bispecific antibody, part only; not given: b12 control arm VH and VL, V domains shown, part only)
VH: B1 VH with Y108H
VL: B1 VL
Question: B2 was tested. Which IC50 of cytotoxicity, Colo205 cells (CellTiter-GLO, 4 days) did it give?
Answer: 1.89 µg/mL

Question: What about the IC50 of cytotoxicity, HCC1954 cells (CellTiter-GLO, 4 days) of the same binder?
Answer: 0.664 µg/mL

Question: What about the IC50 of cytotoxicity, SK-OV-3 cells (CellTiter-GLO, 4 days) of the same binder?
Answer: 1.08 µg/mL

B3: bsCD63xb12-Duo3 with CD63 variant LS52 (bispecific antibody, part only; not given: b12 control arm VH and VL, V domains shown, part only)
VH: B1 VH
VL: B1 VL with S32H
Question: How did the IC50 of cytotoxicity, Colo205 cells (CellTiter-GLO, 4 days) turn out when B3 was run?
Answer: 2.25 µg/mL

Question: And the IC50 of cytotoxicity, HCC1954 cells (CellTiter-GLO, 4 days)?
Answer: 0.662 µg/mL

Question: And the IC50 of cytotoxicity, SK-OV-3 cells (CellTiter-GLO, 4 days)?
Answer: 1.13 µg/mL

B4: bsCD63xb12-Duo3 with CD63 variant LQ47 (bispecific antibody, part only; not given: b12 control arm, V domains shown, part only)
VH: B1 VH
VL: B1 VL with Q27H
Question: What does the source list for B4?
Answer: IC50 of cytotoxicity, Colo205 cells (CellTiter-GLO, 4 days): 2.43 µg/mL; IC50 of cytotoxicity, HCC1954 cells (CellTiter-GLO, 4 days): 0.753 µg/mL; IC50 of cytotoxicity, SK-OV-3 cells (CellTiter-GLO, 4 days): 1.11 µg/mL

B5: bsHER2xCD63N74H-Duo3 (bispecific antibody, part only; not given: HER2 arm, V domains shown, part only)
VH: B1 VH with N55H
VL: B1 VL
Question: How did the IC50 of cytotoxicity, Colo205 cells (CellTiter-GLO, 4 days) turn out when B5 was run?
Answer: 1.35 µg/mL

Question: And the IC50 of cytotoxicity, HCC1954 cells (CellTiter-GLO, 4 days)?
Answer: 0.017 µg/mL

Question: What about the IC50 of cytotoxicity, SK-OV-3 cells (CellTiter-GLO, 4 days) of the same binder?
Answer: 0.037 µg/mL

B6: bsCD63xb12-Duo3 with CD63 variant Y46 (bispecific antibody, part only; not given: b12 control arm VH and VL, V domains shown, part only)
VH: B1 VH with Y27H
VL: B1 VL
Question: How did the IC50 of cytotoxicity, Colo205 cells (CellTiter-GLO, 4 days) turn out when B6 was run?
Answer: 5.64 µg/mL

Question: And the IC50 of cytotoxicity, HCC1954 cells (CellTiter-GLO, 4 days)?
Answer: 0.9 µg/mL

Question: What about the IC50 of cytotoxicity, SK-OV-3 cells (CellTiter-GLO, 4 days) of the same binder?
Answer: 1.37 µg/mL

B7: bsHER2xCD63-Duo3 with CD63 variant LQ47 (bispecific antibody, part only; not given: HER2 arm, V domains shown, part only)
VH: B1 VH
VL: B1 VL with Q27H
Question: B7 was tested. Which IC50 of cytotoxicity, Colo205 cells (CellTiter-GLO, 4 days) did it give?
Answer: 0.587 µg/mL

Question: And the IC50 of cytotoxicity, HCC1954 cells (CellTiter-GLO, 4 days)?
Answer: 0.017 µg/mL

Question: What about the IC50 of cytotoxicity, SK-OV-3 cells (CellTiter-GLO, 4 days) of the same binder?
Answer: 0.048 µg/mL

B8: bsHER2xCD63-Duo3 with CD63 variant LY51H (bispecific antibody, part only; not given: HER2 arm (IgG1-153) VH and VL, V domains shown, part only)
VH: B1 VH
VL: B1 VL with Y31H
Question: For B8, which IC50 of cytotoxicity, Colo205 cells (CellTiter-GLO, 4 days) is on record?
Answer: 10 µg/mL

Question: What about the IC50 of cytotoxicity, HCC1954 cells (CellTiter-GLO, 4 days) of the same binder?
Answer: 0.069 µg/mL

Question: What about the IC50 of cytotoxicity, SK-OV-3 cells (CellTiter-GLO, 4 days) of the same binder?
Answer: 0.207 µg/mL

B9: bsCD63xb12-Duo3 with CD63 variant P72H (bispecific antibody, part only; not given: b12 control arm, V domains shown, part only)
VH: B1 VH with P53H
VL: B1 VL
Question: With B9 as the binder, how does the IC50 of cytotoxicity, Colo205 cells (CellTiter-GLO, 4 days) read?
Answer: 10 µg/mL

Question: What about the IC50 of cytotoxicity, HCC1954 cells (CellTiter-GLO, 4 days) of the same binder?
Answer: 0.92 µg/mL

Question: And the IC50 of cytotoxicity, SK-OV-3 cells (CellTiter-GLO, 4 days)?
Answer: 1.72 µg/mL

Question: What about the lysosomal co-localization with LAMP1 in SK-OV-3 cells (confocal microscopy, 16 hours) of the same binder?
Answer: 10 fold lower

B10: bsHER2xCD63-Duo3 with CD63 variant Y121H (bispecific antibody, part only; not given: HER2 arm, V domains shown, part only)
VH: B1 VH with Y102H
VL: B1 VL
Question: For B10, which IC50 of cytotoxicity, Colo205 cells (CellTiter-GLO, 4 days) is on record?
Answer: 10 µg/mL

Question: What about the IC50 of cytotoxicity, HCC1954 cells (CellTiter-GLO, 4 days) of the same binder?
Answer: 0.073 µg/mL

Question: What about the IC50 of cytotoxicity, SK-OV-3 cells (CellTiter-GLO, 4 days) of the same binder?
Answer: 0.259 µg/mL

B11: bsHER2xCD63-Duo3 with CD63 variant Y46 (bispecific antibody, part only; not given: HER2 arm (IgG1-153) VH and VL, V domains shown, part only)
VH: B1 VH with Y27H
VL: B1 VL
Question: Which IC50 of cytotoxicity, Colo205 cells (CellTiter-GLO, 4 days) does the source give for B11 here?
Answer: 0.754 µg/mL

Question: What about the IC50 of cytotoxicity, HCC1954 cells (CellTiter-GLO, 4 days) of the same binder?
Answer: 0.016 µg/mL

Question: What about the IC50 of cytotoxicity, SK-OV-3 cells (CellTiter-GLO, 4 days) of the same binder?
Answer: 0.045 µg/mL

B12: bsCD63xb12-Duo3 with CD63 variant LV49H (bispecific antibody, part only; not given: b12 control arm, V domains shown, part only)
VH: B1 VH
VL: B1 VL with V29H
Question: For B12, which IC50 of cytotoxicity, Colo205 cells (CellTiter-GLO, 4 days) is on record?
Answer: 10 µg/mL

Question: And the IC50 of cytotoxicity, HCC1954 cells (CellTiter-GLO, 4 days)?
Answer: 1.65 µg/mL

Question: What about the IC50 of cytotoxicity, SK-OV-3 cells (CellTiter-GLO, 4 days) of the same binder?
Answer: 1.4 µg/mL

B13: bsHER2xCD63-Duo3 with CD63 variant Y127 (bispecific antibody, part only; not given: HER2 arm (IgG1-153) VH and VL, V domains shown, part only)
VH: B1 VH with Y108H
VL: B1 VL
Question: Which IC50 of cytotoxicity, Colo205 cells (CellTiter-GLO, 4 days) does the source give for B13 here?
Answer: 0.472 µg/mL

Question: And the IC50 of cytotoxicity, HCC1954 cells (CellTiter-GLO, 4 days)?
Answer: 0.017 µg/mL

Question: And the IC50 of cytotoxicity, SK-OV-3 cells (CellTiter-GLO, 4 days)?
Answer: 0.061 µg/mL

B14: bsCD63xb12-Duo3 with CD63 variant LN54H (bispecific antibody, part only; not given: b12 control arm VH and VL, V domains shown, part only)
VH: B1 VH
VL: B1 VL with N34H
Question: B14 was tested. Which IC50 of cytotoxicity, Colo205 cells (CellTiter-GLO, 4 days) did it give?
Answer: 10 µg/mL

Question: What about the IC50 of cytotoxicity, HCC1954 cells (CellTiter-GLO, 4 days) of the same binder?
Answer: 1.55 µg/mL

Question: What about the IC50 of cytotoxicity, SK-OV-3 cells (CellTiter-GLO, 4 days) of the same binder?
Answer: 3.35 µg/mL

Question: And the lysosomal co-localization with LAMP1 in SK-OV-3 cells (confocal microscopy, 16 hours)?
Answer: 10 fold lower
